# Results published in patent publication US20260258115A1 (MAPP BIOPHARMACEUTICAL, published 2026).
# Substitutions are numbered along the chain they refer to.
# B1: ADI-21059 (antibody, V domains shown)
# VH: QVQLVQSGAEVKRPGDSLKISCKGSGYSFTTSWIGWVRQVPGKGLEWMGIIYPGDSNTVYGPSLQGQVTISADKSTNTAYLQWSSLKASDTAMYYCARRDGGTDYLSDAFDIWGQGTFVTVSS
# VL: DIQMTQSPSSLSASVGDRVTITCRTSQNIVIYLNWYQQKPGKAPKLLIFAASSLPSGVPSRFSGSGSGTDFTLTISSLQPEDVATYYCQQSYNTPGTFGQGTKVDIK
# B2: ADI-21063 (antibody, V domains shown)
# VH: EVQLVESGGGLVQPGGSLRLSCSASGFTFRTYVMQWVRQAPGKGLEYVSAISSDGGSTDYADSVKGRFTVSRDNSKNTLYLQMSSLRAEDTAVYYCVKRGEGGNDYLYYYMDVWGKGTTVTVSS
# VL: DIQVTQSPSSLSASVGDRVTITCRASQSITNYLNWYQQKPGKAPKVLIYAASSLQSGVPSRFSGSGSGTDFTLTISSLQPEDFATYYCQQSYLRPPTFGGGTKVEIK
# B3: ADI-41351 (antibody, V domains shown)
# VH: QVQLVQSGGGLVQPGGSLRLSCSASGFTFSSKSMHWVRQAPGKGLEYVSAIRSDGVSTYYGDSVKGRFTVSRDNAKNTVYLRMSSLRREDTAVYYCVKGPYGDFQYNWFDTWGQGTLVTVSS
# VL: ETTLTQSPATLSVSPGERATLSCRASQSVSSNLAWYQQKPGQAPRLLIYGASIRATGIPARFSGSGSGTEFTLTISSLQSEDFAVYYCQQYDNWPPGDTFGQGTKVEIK
# B4: ADI-41353 (antibody, V domains shown)
# VH: EVQLVESGVEVKKPGESLKISCRGSGYSFHNYWIAWVRQKPGKGLEYMGTIYVDDSDTIYSPSFQGEVTISADKSINTAYLQWNSLKASDTANYYCARQMDFYFDVWGRGTLVTVSS
# VL: SYELTQPPSVSVSPGQTARITCSGDPLPRESAYWYQQKPGQAPVVVIFNDIERPLGIPERFSGSRSGTTVTLTISGAQAEDEADYYCQSADSRKTFVFGSGTKLTVL
# B5: ADI-41357 (antibody, V domains shown)
# VH: EVQLVESGGGLVQPGGSLRLSCAASGFTFSTYGMNWVRQAPGKGLEWVSYIGGSGRIIYYADSVKGRFTISRDNAKNSLYLQMNSLRAEDTAVYYCARDQHIVLVTGSTPDYWGQGTLVTVSS
# VL: EIVLTQSPSSLSASVGDRVTITCRASHAISNYLAWFQQKPGKAPKSLIYAASTLQSGVPSKFSGSGSGTDFTLTISSLQPEDFATYYCQQYSSYPLTFGGGTKVEIK
# B6: ADI-41358 (antibody, V domains shown)
# VH: EVQLVESGGGLVKPGGSLRLSCEASGFTLTSYSMNWVRQAPGKGLEWVSSISSSSTYIHYADSVKGRFTISRDNAKNSLYLQMNSLRAEDTAVYYCARDKVMVTKYNGMDVWGQGTTVTVSS
# VL: QSVLTQPPAVSGAPGQRVTISCTGSSSNIGAGHDVHWYQQLPGTAPKLLIYGNSNRPSGVPDRFSGSKSGTSASLAITGLQAGDEADYYCQSYDSSLSGSLFGGGTKLTVL
# B7: ADI-41359 (antibody, V domains shown)
# VH: EVQLVESGGGLVKPGGSLRLSCAASGFTISGYSMDWVRQAPGKGLEWVSSISSSSSYIHYADSVKGRFTISRDNAKNSLYLQMNSLRAEDTAVYYCATNPREGGAFDIWGQGTTVTVSS
# VL: QSVLTQPPSMSGAPGQRVTISCTGSSSNIGAGYDVHWYQQLPGTAPKLLIYNNSNRPSGVPDRFSASKSGTSASLAITGLQAEDEADYYCQSYDSSLSGYVFGTGTRVTVP
# B8: ADI-41362 (antibody, V domains shown)
# VH: EVQLVESGGGLVQPGGSLRLSCAASGFTFSDHWMNWVRQTPGKGLEWVANIKPDGRETYYVDSVKGRFTISRDNSKKSVYLQMNSLRAEDTAVYYCVRDGHIVVVTAVPPGFFDLWGRGTLVTVSS
# VL: DIQVTQSPSSLSASVGDRVTITCQASQDLTKYLNWYQQKPGKAPKLLIYDISNLETGVPSRFSGSGFGTEFTLTISSLQPEDVATYYCQQYQNLPYTFGQGTKVEIK
# B9: ADI-41363 (antibody, V domains shown)
# VH: QVQLVQSGAEVKKPGSSVKVSCKASGGTFSSYAITWVRQAPGQGLEWMGGIIPLFGTAKYAQQFQGRVTITADESTSTAYMELSSLRSEDTAVYYCARDGEVCTNGFCWFLDWGLGTLVTVSS
# VL: DIRVTQSPSSLSASVGDRVTITCQASQDISNYLNWYQQKPGKAPKLLIYDASKLETGVPSRFSGSGSGTDFTFTISSLQPEDIATYYCQNYGNFPHFGGGTKLEIK
# B10: ADI-41364 (antibody, V domains shown)
# VH: EVQLLESGAEVKKPGASVKVSCKASGYTFTDHSIHWVRQAPGRGLEWMGWFNPHTGVTDYAQKFQGWVTMTSDTSISTAYMELSSLKSDDTAIYFCARDQWETDGAYFLDYWGQGTLVTVSS
# VL: QSALTQPASVSGSPGQSITISCTGTSSDVGNFKLVSWYQQHPGKAPKLMIYEGNKRPSGVSNRFSGSKSGNTASLTISGLQAEDEADYYCCSSAVSSTFFGTGTKLTVL
# B11: ADI-41380 (antibody, V domains shown)
# VH: QVQLVQSGAEVKKPGESLKISCKGSGYSFTSYWIGWVRQMPGKGLEWMGIIYPGDSDTRYSPSFQGQVTISADKSISTAYLQWSSLKASDTAMYYCASSRAYYDILTGYYVASAETQTKAAFDIWGQGTTVTVSS
# VL: B9 VL with R3Q, K53N, T72S, N90Q, G92D, F94L, P95I, H96T, G99Q, L103V
# B12: ADI-41382 (antibody, V domains shown)
# VH: EVQLVESGGGLVQPGRSLRLSCAASGFTFDDYAMHWVRQAPGKGLEWVSGISWSGDTRGYAESVKGRFTITRDNAKKYLYLQMNSLRAEDTAFYYCAKDAYYFGSGNEKFYYGMDVWGQGTTVTVSS
# VL: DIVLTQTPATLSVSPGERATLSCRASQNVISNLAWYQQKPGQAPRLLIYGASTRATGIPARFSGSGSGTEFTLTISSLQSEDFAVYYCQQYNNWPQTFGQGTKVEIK
# B13: ADI-41386 (antibody, V domains shown)
# VH: QVQLVQSGAEVKKPGASVKVSCKASGYTFTGNYIHWVRQAPGQGLEWMGGINPNSGATNYARKFQGRISMTRDTSINTAYMEVSSLRSDDTATYYCARDAPPVVIPAAIHWFDAWGQGTLVTVSS
# VL: SYELTQPPSASGTPGQRVTISCSGSSSNIGRNTVNWYQQFSGTAPRLLIYRTNQRPSGVPDRFSGSKSGTSASLVISGLQSEDEADYYCASWHDTLNDVVFGGGTKLTVL
# B14: ADI-41390 (antibody, V domains shown)
# VH: EVQLVESGGGLVKPGGSLRLSCAASGFSSSSYFMNWVRQAPGKGPEWVSSISGSSSFINYADSVKGRFTISRDNAKNSLYLQMNSLRAEDTAVYYCARAVLPAGVGGYWFDSWGQGTLVTVSS
# VL: QSVVTQPPSVSGAPGQRVTISCTGSSSNIGAGYDVHWYQHLPGRAPKLLIYGNSNRPSGVPDRFSGSKSGTSASLVITGLQAEDEADYCCQSYDSSLSGAVFGGGTQLTVL
# B15: ADI-41394 (antibody, V domains shown)
# VH: QVQLVQSGAEVKKPGSSVKVSCKASGGTFNTYAISWVRQAPGQGLEWMGGIIPILGVSNYAQRFQGRVTFSADELTNTAYMELSSLRSEDTAVYFCARPVGAYTLGDAFEIWGRGTTVTVSS
# VL: QPVLTQSSSASASLGSSVKLTCTLSSGHSDFIIAWHQQQPGKAPRYLMKFEGNGRYSKGSGIPDRFSGSSSGADRCLTISNLQSEDEADYYCETWDSNTHVVFGGGTKLTVL
# B16: ADI-41396 (antibody, V domains shown)
# VH: EVQLVESGGGLVNPGGSLRLSCVVSGFAFSSYGMNWVRQAPGKGLEWVSSISASSSYIDYADSVKGRFIISRDNAKNSLHLQMNSLRAEDTAVYYCARLGYDSSTYYTNWFDPWGRGTLVTVSS
# VL: B7 VL with L4V, P7E, M10V, A31T, T44A, N52G, F64I, A66G, R107K, P111L
# B17: ADI-41397 (antibody, V domains shown)
# VH: EVQLVESGGGLVKPGGSLRLSCAASGFKFSSYYLNWVRQAPGKGLEWVSSISGGSSYINYADSVKGRFTISRDNAKNTLDLQMSNLRAEDTAVYYCARVVGATGPLYFDLWGRGTLVTVSS
# VL: B7 VL with M10V, L41F, N52G, S54N, A66G, T104A, R107K, P111L
# B18: ADI-41399 (antibody, V domains shown)
# VH: QVQLVQSGAEVKKPGASVKVSCKASGYTFTTFAIHWVRQAPGQRLEWMGWINAGNGNTKYSQKFQGRVTITRDTSASTAYMELSSLRSEDTAVYYCARPEISSSSLNEKDDYWGQGTLVTVSS
# VL: QPVLTQPASVSGSPGQSITISCTGTSSDVGAYDFVSWYQQHPGKAPKFMIYEVSHRPSGVSNRFSGSKSGNTASLTISGLQAEDEADYYCSSYTTSNTLVFGGGTKLTVL
# B19: ADI-41408 (antibody, V domains shown)
# VH: QVQLVESGAEVKKPGESLKISCRDSGYSFSSFWIGWVRQMPGKGLEWVGIIYPGDSDIRYSPSFQGRVTISADKSISTAYLQWRSLKASDSAMYYCARSEKLGSFDRWGQGTLVTVSS
# VL: DIQMTQSPSSLSASVGDRVTITCQANRDISNCLNWYQQRPGKAPELLIYDASYLETGVPSRFTGSGSGTDFTFTISSLQPEDIATYYCQQYDNLLFTFGPGTKVEIK
# B20: ADI-41409 (antibody, V domains shown)
# VH: QVQLVQSGAEVKKPGASVKVSCKASGYTFTNYGISWVRQAPGQGLEWMGWISAYNGNTNYAQKFQDRVTMTTDTSTSTAYMELRSLRYDDTAVYYCARDTPGEYASAMFDHWGQGTLVTVSS
# VL: DIVMTQSPLSLPVTLGQPASISCRSSQSLVYSDGNTYLSWFQQRPGQSPRRLIYKVSNRDSGVPDRFSGSGSGTDFTLKISGVEAEDVGVYYCMQGTHWPPTFGQGTKLEIK
# B21: ADI-41417 (antibody, V domains shown)
# VH: QVQLVESGGGLVKPGGSLRLSCAASGFTFSSYSMNWVRQAPGKGLEWVSSISAGSSYIYYADSLKGRFTISRDNAKNSLYLQMNSLRAEDTAVYYCARVNTHYYDSSAYHNFDSWGQGTLVTVSS
# VL: QPVVTQPPSVSGAPGQRVTISCTGSSSNIGAGYDVHWYQQLPGTAPKLLIYGNTNRPSGVPERFSGSKSGTSASLAITGLQAEDEADYYCQSYDTNLSAPWVFGGGTKLTVL
# Molecular target: T1, RSV postfusion F (postF), subtype A (respiratory syncytial virus, subtype A, UniProt P03420 26-513)
# T1 construct: also called F ΔFP; Postfusion subtype A
# Experiment: BLI, IgG
row,Binder,binding result
1,B1,no binding
2,B2,no binding

# Molecular target: RSV prefusion F (preF), subtype B (respiratory syncytial virus, subtype B)
# Experiment: BLI, IgG
row,Binder,Kd [nM]
1,B1,9.43
2,B2,0.777

# Molecular target: RSV prefusion F (preF), subtype A (respiratory syncytial virus, subtype A, UniProt P03420 26-513)
# Experiment: BLI, IgG
row,Binder,Kd [nM]
1,B1,3.05
2,B2,0.834

# Molecular target: RSV fusion glycoprotein (RSV F) on RSV-A2 virus (respiratory syncytial virus, UniProt P03420 26-574)
# Experiment: cell-based or functional assay
row,Binder,Neutralization IC50 (RSV subtype A) [µg/mL]
1,B3,0.149
2,B4,> 25
3,B5,> 25
4,B6,0.389
5,B7,> 25
6,B8,0.911
7,B9,0.143
8,B10,0.14
9,B11,0.0549
10,B12,0.02
11,B13,> 25
12,B14,0.62
13,B15,> 25
14,B16,1.37
15,B17,0.09
16,B18,> 25
17,B19,> 25
18,B20,0.29
19,B21,0.71
